Results reported in article PMC2120109 (The Journal of Cell Biology, 1994).

Molecular target: the molecule itself
Assay: SEC

Protein	binding result
NSF K266A mutant with His6 at the amino terminus and a myc epitope at the carboxy terminus (natural protein, UniProt P18708 1-744, looked up) MAGRSMQAARCPTDELSLSNCAVVSEKDYQSGQHVIVRTSPNHKYIFTLRTHPSVVPGSVAFSLPQRKWAGLSIGQEIEVALYSFDKAKQCIGTMTIEIDFLQKKNIDSNPYDTDKMAAEFIQQFNNQAFSVGQQLVFSFNDKLFGLLVKDIEAMDPSILKGEPASGKRQKIEVGLVVGNSQVAFEKAENSSLNLIGKAKTKENRQSIINPDWNFEKMGIGGLDKEFSDIFRRAFASRVFPPEIVEQMGCKHVKGILLYGPPGCGATLLARQIGKMLNAREPKVVNGPEILNKYVGESEANIRKLFADAEEEQRRLGANSGLHIIIFDEIDAICKQRGSMAGSTGVHDTVVNQLLSKIDGVEQLNNILVIGMTNRPDLIDEALLRPGRLEVKMEIGLPDEKGRLQILHIHTARMRGHQLLSADVDIKELAVETKNFSGAELEGLVRAAQSTAMNRHIKASTKVEVDMEKAESLQVTRGDFLASLENDIKPAFGTNQEDYASYIMNGIIKWGDPVTRVLDDGELLVQQTKNSDRTPLVSVLLEGPPHSGKTALAAKIAEESNFPFIKICSPDKMIGFSETAKCQAMKKIFDDAYKSQLSCVVVDDIERLLDYVPIGPRFSNLVLQALLVLLKKAPPQGRKLLIIGTTSRKDVLQEMEMLNAFSTTIHVPNIATGEQLLEALELLGNFKDKERTTIAQQVKGKKVWIGIKKLLMLIEMSLQMDPEYRVRKFLALLREEGASPLDFD	binds
NSF E329Q mutant (natural protein, UniProt P18708 1-744, looked up) MAGRSMQAARCPTDELSLSNCAVVSEKDYQSGQHVIVRTSPNHKYIFTLRTHPSVVPGSVAFSLPQRKWAGLSIGQEIEVALYSFDKAKQCIGTMTIEIDFLQKKNIDSNPYDTDKMAAEFIQQFNNQAFSVGQQLVFSFNDKLFGLLVKDIEAMDPSILKGEPASGKRQKIEVGLVVGNSQVAFEKAENSSLNLIGKAKTKENRQSIINPDWNFEKMGIGGLDKEFSDIFRRAFASRVFPPEIVEQMGCKHVKGILLYGPPGCGKTLLARQIGKMLNAREPKVVNGPEILNKYVGESEANIRKLFADAEEEQRRLGANSGLHIIIFDQIDAICKQRGSMAGSTGVHDTVVNQLLSKIDGVEQLNNILVIGMTNRPDLIDEALLRPGRLEVKMEIGLPDEKGRLQILHIHTARMRGHQLLSADVDIKELAVETKNFSGAELEGLVRAAQSTAMNRHIKASTKVEVDMEKAESLQVTRGDFLASLENDIKPAFGTNQEDYASYIMNGIIKWGDPVTRVLDDGELLVQQTKNSDRTPLVSVLLEGPPHSGKTALAAKIAEESNFPFIKICSPDKMIGFSETAKCQAMKKIFDDAYKSQLSCVVVDDIERLLDYVPIGPRFSNLVLQALLVLLKKAPPQGRKLLIIGTTSRKDVLQEMEMLNAFSTTIHVPNIATGEQLLEALELLGNFKDKERTTIAQQVKGKKVWIGIKKLLMLIEMSLQMDPEYRVRKFLALLREEGASPLDFD	binds
NSF K549A mutant (natural protein, UniProt P18708 1-744, looked up) MAGRSMQAARCPTDELSLSNCAVVSEKDYQSGQHVIVRTSPNHKYIFTLRTHPSVVPGSVAFSLPQRKWAGLSIGQEIEVALYSFDKAKQCIGTMTIEIDFLQKKNIDSNPYDTDKMAAEFIQQFNNQAFSVGQQLVFSFNDKLFGLLVKDIEAMDPSILKGEPASGKRQKIEVGLVVGNSQVAFEKAENSSLNLIGKAKTKENRQSIINPDWNFEKMGIGGLDKEFSDIFRRAFASRVFPPEIVEQMGCKHVKGILLYGPPGCGKTLLARQIGKMLNAREPKVVNGPEILNKYVGESEANIRKLFADAEEEQRRLGANSGLHIIIFDEIDAICKQRGSMAGSTGVHDTVVNQLLSKIDGVEQLNNILVIGMTNRPDLIDEALLRPGRLEVKMEIGLPDEKGRLQILHIHTARMRGHQLLSADVDIKELAVETKNFSGAELEGLVRAAQSTAMNRHIKASTKVEVDMEKAESLQVTRGDFLASLENDIKPAFGTNQEDYASYIMNGIIKWGDPVTRVLDDGELLVQQTKNSDRTPLVSVLLEGPPHSGATALAAKIAEESNFPFIKICSPDKMIGFSETAKCQAMKKIFDDAYKSQLSCVVVDDIERLLDYVPIGPRFSNLVLQALLVLLKKAPPQGRKLLIIGTTSRKDVLQEMEMLNAFSTTIHVPNIATGEQLLEALELLGNFKDKERTTIAQQVKGKKVWIGIKKLLMLIEMSLQMDPEYRVRKFLALLREEGASPLDFD	binds
NSF double hydrolysis mutant E329/D604Q (natural protein, UniProt P18708 1-744, looked up) MAGRSMQAARCPTDELSLSNCAVVSEKDYQSGQHVIVRTSPNHKYIFTLRTHPSVVPGSVAFSLPQRKWAGLSIGQEIEVALYSFDKAKQCIGTMTIEIDFLQKKNIDSNPYDTDKMAAEFIQQFNNQAFSVGQQLVFSFNDKLFGLLVKDIEAMDPSILKGEPASGKRQKIEVGLVVGNSQVAFEKAENSSLNLIGKAKTKENRQSIINPDWNFEKMGIGGLDKEFSDIFRRAFASRVFPPEIVEQMGCKHVKGILLYGPPGCGKTLLARQIGKMLNAREPKVVNGPEILNKYVGESEANIRKLFADAEEEQRRLGANSGLHIIIFDQIDAICKQRGSMAGSTGVHDTVVNQLLSKIDGVEQLNNILVIGMTNRPDLIDEALLRPGRLEVKMEIGLPDEKGRLQILHIHTARMRGHQLLSADVDIKELAVETKNFSGAELEGLVRAAQSTAMNRHIKASTKVEVDMEKAESLQVTRGDFLASLENDIKPAFGTNQEDYASYIMNGIIKWGDPVTRVLDDGELLVQQTKNSDRTPLVSVLLEGPPHSGKTALAAKIAEESNFPFIKICSPDKMIGFSETAKCQAMKKIFDDAYKSQLSCVVVDQIERLLDYVPIGPRFSNLVLQALLVLLKKAPPQGRKLLIIGTTSRKDVLQEMEMLNAFSTTIHVPNIATGEQLLEALELLGNFKDKERTTIAQQVKGKKVWIGIKKLLMLIEMSLQMDPEYRVRKFLALLREEGASPLDFD	binds
NSF D604Q mutant (natural protein, UniProt P18708 1-744, looked up) MAGRSMQAARCPTDELSLSNCAVVSEKDYQSGQHVIVRTSPNHKYIFTLRTHPSVVPGSVAFSLPQRKWAGLSIGQEIEVALYSFDKAKQCIGTMTIEIDFLQKKNIDSNPYDTDKMAAEFIQQFNNQAFSVGQQLVFSFNDKLFGLLVKDIEAMDPSILKGEPASGKRQKIEVGLVVGNSQVAFEKAENSSLNLIGKAKTKENRQSIINPDWNFEKMGIGGLDKEFSDIFRRAFASRVFPPEIVEQMGCKHVKGILLYGPPGCGKTLLARQIGKMLNAREPKVVNGPEILNKYVGESEANIRKLFADAEEEQRRLGANSGLHIIIFDEIDAICKQRGSMAGSTGVHDTVVNQLLSKIDGVEQLNNILVIGMTNRPDLIDEALLRPGRLEVKMEIGLPDEKGRLQILHIHTARMRGHQLLSADVDIKELAVETKNFSGAELEGLVRAAQSTAMNRHIKASTKVEVDMEKAESLQVTRGDFLASLENDIKPAFGTNQEDYASYIMNGIIKWGDPVTRVLDDGELLVQQTKNSDRTPLVSVLLEGPPHSGKTALAAKIAEESNFPFIKICSPDKMIGFSETAKCQAMKKIFDDAYKSQLSCVVVDQIERLLDYVPIGPRFSNLVLQALLVLLKKAPPQGRKLLIIGTTSRKDVLQEMEMLNAFSTTIHVPNIATGEQLLEALELLGNFKDKERTTIAQQVKGKKVWIGIKKLLMLIEMSLQMDPEYRVRKFLALLREEGASPLDFD	binds
